Experimental data published in article PMC6097615 (Developmental cell, 2010).

B1: TRF1_(TRFH) (TRFH domain of TRF1, residues 58–268), GST tag removed (domain or fragment, human, UniProt P54274 58-268, looked up)
chain: EEEEEDAGLVAEAEAVAAGWMLDFLCLSLCRAFRDGRSEDFRRTRNSAEAIIHGLSSLTACQLRTIYICQFLTRIAAGKTLDAQFENDERITPLESALMIWGSIEKEHDKLHEEIQNLIKIQAIAVCMENGNFKEAEEVFERIFGDPNSHMPFKSKLLMIISQKDTFHSFFQHFSYNHMMEKIKSYVNYVLSEKSSTFLMKAAAKVVESKR
B2: GST-TRF1_(TRFH) (domain or fragment, human, UniProt P54274 58-268, looked up)
chain: B1 chain
B3: Fbx4G (Fbx4 GTPase domain, residues 162–387) (domain or fragment, human, UniProt Q9UKT5 162-387, looked up)
chain: GAVTSFLHSLIIQNEPRFAMFGPGLEELNTSLVLSLMSSEELCPTAGLPQRQIDGIGSGVNFQLNNQHKFNILILYSTTRKERDRAREEHTSAVNKMFSRHNEGDDQQGSRYSVIPQIQKVCEVVDGFIYVANAEAHKRHEWQDEFSHIMAMTDPAFGSSGRPLLVLSCISQGDVKRMPCFYLAHELHLNLLNHPWLVQDTEAETLTGFLNGIEWILEEVESKRAR

Experiments:
crystal structure = target: the molecule itself; assay: crystal structure
[1] = target: B3; assay: pull-down
[2] = target: B1; assay: crystal structure

Binder: B1
- binding result (crystal structure): binds

Binder: B2
- binding result [1]: binds

Binder: B3
- stoichiometry N [2]: 1 Fbx4G per TRF1_TRFH (printed as 2:2)
